Test results taken from patent US20070196376A1 (AstraZeneca / MedImmune, published 2007).
Numbering of substitutions follows the chain as printed.

Columns and labels:
[1] = biological target: T1, human insulin-like growth factor-II (IGF-II) (human, UniProt P01344 25-91); assay: Biacore low-resolution analysis, IGF-II
T1 construct: also called IGF2; IGF-2

[2] = biological target: T2, human insulin-like growth factor-I (IGF-I) (human, UniProt P05019 49-118); assay: Biacore low-resolution screen, mAb captured, IGF-I injected
T2 construct: also called IGF1; IGF-1

[3] = biological target: T2, human insulin-like growth factor-I …; assay: cell-based or functional assay
[4] = biological target: T1, human insulin-like growth factor-II …; assay: cell-based or functional assay
[5] = biological target: T2, human insulin-like growth factor-I …; assay: cell-based or functional assay; remark: listed apart in the source
[6] = biological target: T1, human insulin-like growth factor-II …; assay: cell-based or functional assay; remark: listed apart in the source
[7] = biological target: T2, human insulin-like growth factor-I …; assay: Biacore low-resolution analysis, IGF-I
[8] = biological target: T2, human insulin-like growth factor-I …; assay: cell-based or functional assay; remark: listed apart in the source
[9] = biological target: T1, human insulin-like growth factor-II …; assay: cell-based or functional assay; remark: listed apart in the source
[10] = biological target: T1, human insulin-like growth factor-II …; assay: Biacore low-resolution screen, mAb captured, IGF-II injected
[11] = biological target: T1, human insulin-like growth factor-II …; assay: Biacore high-resolution, mAb captured, IGF-II injected over a range of concentrations
[12] = biological target: T2, human insulin-like growth factor-I …; assay: Biacore high-resolution, mAb captured, IGF-I injected over a range of concentrations
mouse IGF-II = mouse IGF-II (mouse, UniProt P09535 25-91); assay: cell-based or functional assay
mouse IGF-I = mouse IGF-I (mouse, UniProt P05017 49-118); assay: cell-based or functional assay
[13] = biological target: T1, human insulin-like growth factor-II …; assay: cell-based or functional assay; remark: listed apart in the source
[14] = biological target: T3, Recombinant human IGF-II (insulin-like growth factor-II) (human, UniProt P01344 25-91); assay: limited antigen ELISA, supernatant 1:25
T3 construct: Bought; also called IGF2; IGF-2

[15] = biological target: T4, Recombinant human IGF-I (insulin-like growth factor-I) (human, UniProt P05019 49-118); assay: limited antigen ELISA, supernatant 1:25
T4 construct: Bought; also called IGF1; IGF-1

human insulin = biological target: T5, human insulin (human, UniProt P01308 25-54; P01308 90-110, limits assumed); assay: Biacore, mAb on CM5 chip, insulin injected
T5 construct: The mature hormone has an A and a B chain cut from the precursor; also called recombinant insulin; hu-Insulin

IGF-II/IGFBP-3 complex = biological target: T6, IGF-II/IGFBP-3 complex (UniProt P01344 25-91); assay: Biacore, mAb immobilised, preformed complex injected
T6 construct: Preformed non-covalent complex; IGF-II 99.97% complexed by IGFBP-3; also called complexed IGF-II/IGFBP-3

IGF-I/IGFBP-3 complex = biological target: T7, IGF-I/IGFBP-3 complex (UniProt P05019 49-118); assay: as above
T7 construct: Preformed non-covalent complex; IGF-I 99.97% complexed by IGFBP-3; also called complexed IGF-I/IGFBP-3

B1: mAb 7.251.3 (antibody, V domains shown)
VH: QVQLQESGPGLVKPSETLSLTCTVSGGSISSYYWSWIRQPPGKGLEWIGYFFYSGYTNYNPSLKSRVTISVDTSKNQFSLKLSSVTAADTAVYYCACITGTTKGGMDVWGQGTTVTVSS
VL: QSVLTQPPSVSGAPGQRVTISCTGSSSNIGAGYDVHWYQQLPGTAPKLLIYGNNNRPSGVPDRFSGSKSGTSASLAITGLQADDEADYYCQSFDSSLSGSVFGGGTKLTVLG
notes: Fully human XenoMouse hybridoma mAb, lambda light chain (V1-13/JL2); also called ATCC PTA-7422
A Kd [1] of 0.123 nM, a Kd [2] of 0.935 nM and a koff [2] of 0.0043 s⁻¹ were found for B1 in this work. The kon [2] was 4.6e+06 M⁻¹ s⁻¹, the “EC50 (nM), n = 1, IGF-I pTYR, BxPC3 cells” value [3] was 7.5 nM and the “EC50 (nM), n = 2, IGF-I pTYR, BxPC3 cells” value [3] was 5.3 nM. For the same binder, the “Max % Inhibition (333.3 nM), n = 1, IGF-I pTYR, BxPC3 cells” value [3] was 95.7%, the “Max % Inhibition (333.3 nM), n = 2, IGF-I pTYR, BxPC3 cells” value [3] was 95.2% and the “EC50 (nM), n = 2, IGF-II pTYR, BxPC3 cells” value [4] was 2.6 nM. For the same binder, the “Max % Inhibition (133.3 nM), n = 2, IGF-II pTYR, BxPC3 cells” value [4] was 91.3%, the “Max % Inhibition (333.3 nM), n = 1, IGF-II pTYR, BxPC3 cells” value [4] was 100% and the “% Inhibition, mean (n = 3), IGF-I Proliferation Assay, NIH3T3/hIGF-IR cells” value [5] was 72.4%. For the same binder, the “EC50 (nM), mean (n = 3), IGF-I Proliferation Assay, NIH3T3/hIGF-IR cells” value [5] was 38.9 nM, the “% Inhibition, mean (n = 2), IGF-II Proliferation Assay, NIH3T3/hIGF-IR cells” value [6] was 79.2% and the “EC50 (nM), mean (n = 2), IGF-II Proliferation Assay, NIH3T3/hIGF-IR cells” value [6] was 22 nM. The Kd [7] was 0.935 nM, the “% MAX Activation, mean (n = 2), IGF-I pTYR of hIGF-IR in NIH3T3 cells” value [8] was 16.9% and the “EC50 (nM), mean (n = 2), IGF-I pTYR of hIGF-IR in NIH3T3 cells” value [8] was 14.5 nM. For the same binder, the “% MAX Activation, mean (n = 2), IGF-II pTYR of hIGF-IR in NIH3T3 cells” value [9] was 15.9%, the “EC50 (nM), mean (n = 2), IGF-II pTYR of hIGF-IR in NIH3T3 cells” value [9] was 3 nM and the Kd [10] was 0.123 nM. The koff [10] was 0.00043 s⁻¹, the kon [10] was 3.5e+06 M⁻¹ s⁻¹ and the Kd [11] was 0.0474 nM. The Kd [12] was 0.452 nM, the “Mouse IGF-II EC50 (nM), n = 1, phosphorylation of hIGF-IR in NIH3T3 cells” value (mouse IGF-II) was 5.4 nM and the “Mouse IGF-II EC50 (nM), n = 2, phosphorylation of hIGF-IR in NIH3T3 cells” value (mouse IGF-II) was 8.7 nM. The “Mouse IGF-I EC50 (nM), n = 1, phosphorylation of hIGF-IR in NIH3T3 cells” value (mouse IGF-I) was 6.7 nM, the “Mouse IGF-I EC50 (nM), n = 2, phosphorylation of hIGF-IR in NIH3T3 cells” value (mouse IGF-I) was 10.6 nM and the “EC50 (nM), n = 1, IGF-II Proliferation, BxPC3 cells” value [13] was 0.5 nM. The “EC50 (nM), n = 2, IGF-II Proliferation, BxPC3 cells” value [13] was 4.4 nM, the “Max % Inhibition (133.3 nM), n = 2, IGF-II Proliferation, BxPC3 cells” value [13] was 105% and the “Max % Inhibition (333.3 nM), n = 1, IGF-II Proliferation, BxPC3 cells” value [13] was 128%.

B2: mAb 7.34.1 (ATCC Accession Number PTA-7423) (antibody, V domains shown)
VH: B1 VH with K43R, I69M, T113A
VL: B1 VL with P7A, S25R, L41F, N54S, D83E, F93Y
notes: Fully human, lambda light chain (V1-13/JL2)
In the case of B2, the “LA OD, IGF2 2 ng/ml” value [14] is reported as 1.07 OD 450 nm, the “LA OD, IGF2 4 ng/ml” value [14] is reported as 1.84 OD 450 nm and the “LA OD, IGF1 2 ng/ml” value [15] is reported as 0.21 OD 450 nm. For the same binder, the “LA OD, IGF1 4 ng/ml” value [15] was 0.44 OD 450 nm, the binding result (human insulin) was “no binding (tested: 502 nM)” and the Kd (IGF-II/IGFBP-3 complex) was over 1000 nM. It also gave a Kd (IGF-I/IGFBP-3 complex) of over 1000 nM.

B3: mAb 7.251.3 (ATCC Accession Number PTA-7422) (antibody, V domains shown)
VH: B1 VH
VL: B1 VL
notes: as for B2
For B3, the “LA OD, IGF2 2 ng/ml” value [14] was 1.02 OD 450 nm, the “LA OD, IGF2 4 ng/ml” value [14] was 1.53 OD 450 nm and the “LA OD, IGF1 2 ng/ml” value [15] was 1.09 OD 450 nm. The “LA OD, IGF1 4 ng/ml” value [15] was 1.31 OD 450 nm, the binding result (human insulin) was “no binding (tested: 502 nM)” and the Kd (IGF-II/IGFBP-3 complex) was over 1000 nM. For the same binder, the Kd (IGF-I/IGFBP-3 complex) was over 1000 nM.

B4: mAb 7.234.2 (antibody, V domains shown)
VH: QLQLQESGPGLVKPSETLSLTCTVSGGSINSSSNYWGWIRQPPGKGLAWIGGIYYSGSTYYNPSLRSRVTMSVDTSKNQFSLKLSSVTAADTAVYYCARQRGHSSGWWYFDLWGRGTLVTVSS
VL: DIQMTQSPSSVSASVGDRVTITCRASRGISSWLAWYQQRPGKAPKLLIYTASSLQSGVPSRFSGSGSGTDFTLTISSLQPEDFATYYCQQANSFPFTFGPGTKVDIKR
notes: Kappa light chain (L5/JK3); also called 7.234.1; 7_234_1
A Kd [1] of 0.0453 nM, a Kd [2] of 0.328 nM and a koff [2] of 0.0022 s⁻¹ were found for B4 in this work. For the same binder, the kon [2] was 6.7e+06 M⁻¹ s⁻¹, the “EC50 (nM), n = 1, IGF-I pTYR, BxPC3 cells” value [3] was 5.1 nM and the “EC50 (nM), n = 2, IGF-I pTYR, BxPC3 cells” value [3] was 2.9 nM. For the same binder, the “Max % Inhibition (333.3 nM), n = 1, IGF-I pTYR, BxPC3 cells” value [3] was 97.3%, the “Max % Inhibition (333.3 nM), n = 2, IGF-I pTYR, BxPC3 cells” value [3] was 91.5% and the “EC50 (nM), n = 1, IGF-II pTYR, BxPC3 cells” value [4] was 1.9 nM. The “EC50 (nM), n = 2, IGF-II pTYR, BxPC3 cells” value [4] was 2.3 nM, the “Max % Inhibition (133.3 nM), n = 2, IGF-II pTYR, BxPC3 cells” value [4] was 77.3% and the “Max % Inhibition (333.3 nM), n = 1, IGF-II pTYR, BxPC3 cells” value [4] was 98.5%. For the same binder, the “% Inhibition, mean (n = 3), IGF-I Proliferation Assay, NIH3T3/hIGF-IR cells” value [5] was 67.3%, the “EC50 (nM), mean (n = 3), IGF-I Proliferation Assay, NIH3T3/hIGF-IR cells” value [5] was 40.6 nM and the “% Inhibition, mean (n = 2), IGF-II Proliferation Assay, NIH3T3/hIGF-IR cells” value [6] was 62.1%. The “EC50 (nM), mean (n = 2), IGF-II Proliferation Assay, NIH3T3/hIGF-IR cells” value [6] was 24.3 nM, the Kd [7] was 0.328 nM and the “% MAX Activation, mean (n = 2), IGF-I pTYR of hIGF-IR in NIH3T3 cells” value [8] was 21.1%. For the same binder, the “EC50 (nM), mean (n = 2), IGF-I pTYR of hIGF-IR in NIH3T3 cells” value [8] was 24.3 nM, the “% MAX Activation, mean (n = 2), IGF-II pTYR of hIGF-IR in NIH3T3 cells” value [9] was 21.1% and the “EC50 (nM), mean (n = 2), IGF-II pTYR of hIGF-IR in NIH3T3 cells” value [9] was 7.7 nM. It also gave a Kd [10] of 0.0453 nM, a koff [10] of 0.00029 s⁻¹ and a kon [10] of 6.4e+06 M⁻¹ s⁻¹. The Kd [11] was 0.295 nM, the Kd [12] was 3.76 nM and the “Mouse IGF-II EC50 (nM), n = 1, phosphorylation of hIGF-IR in NIH3T3 cells” value (mouse IGF-II) was 36.1 nM. The “Mouse IGF-I EC50 (nM), n = 1, phosphorylation of hIGF-IR in NIH3T3 cells” value (mouse IGF-I) was 46 nM, the “EC50 (nM), n = 2, IGF-II Proliferation, BxPC3 cells” value [13] was 2.6 nM and the “Max % Inhibition (133.3 nM), n = 2, IGF-II Proliferation, BxPC3 cells” value [13] was 201%. For the same binder, the “Max % Inhibition (333.3 nM), n = 1, IGF-II Proliferation, BxPC3 cells” value [13] was 112%.
